Measurements taken from patent US20240123070A1, “EPITOPE PEPTIDE OF RAS G13D MUTANT AND T CELL RECEPTOR RECOGNIZING RAS G13D MUTANT” (SHANGHAI GENBASE BIOTECHNOLOGY CO., LTD., priority 2021, published 2024).
Numbering of substitutions follows the chain as printed.

T1: KRAS G13D (G13D-RT6) peptide on HLA-DQA1*05:01 / HLA-DQB1*03:01 (human)
T1 chain: YKLVVVGAGDVGKSAL

B1: B8.2.4 TCR mutant β95Q-A (protein)
chain 1: AQKITQTQPGMFVQEKEAVTLDCTYDTSDPSYGLFWYKQPSSGEMIFLIYQGSYDQQNATEGRYSLNFQKARKSANLVISASQLGDSAMYFCAMRERTGTASKLTFGTGTRLQVTL
chain 2: DVKVTQSSRYLVKRTGEKVFLECVQDMDHENMFWYRQDPGLGLRLIYFSYDVKMKEKGDIPEGYSVSREKKERFSLILESASTNQTSMYLCASSATVPPQHFGDGTRLSIL
B2: B8.2.4 TCR mutant β97V-S (protein)
chain 1: B1 chain 1
chain 2: B1 chain 2 with A95Q, V97S
B3: B8.2.4 TCR mutant β95Q-N (protein)
chain 1: B1 chain 1
chain 2: B1 chain 2 with A95N
B4: B8.2.4 TCR mutant β98P-W (protein)
chain 1: B1 chain 1
chain 2: B1 chain 2 with A95Q, P98W
B5: B8.2.4 TCR mutant β98P-C (protein)
chain 1: B1 chain 1
chain 2: B1 chain 2 with A95Q, P98C
B6: B8.2.4 TCR mutant β95Q-I (protein)
chain 1: B1 chain 1
chain 2: B1 chain 2 with A95I
B7: B8.2.4 TCR mutant β95Q-E (protein)
chain 1: B1 chain 1
chain 2: B1 chain 2 with A95E
B8: B8.2.4 TCR mutant β98P-F (protein)
chain 1: B1 chain 1
chain 2: B1 chain 2 with A95Q, P98F
B9: B8.2.4 TCR mutant β98P-D (protein)
chain 1: B1 chain 1
chain 2: B1 chain 2 with A95Q, P98D
B10: B8.2.4 TCR mutant β95Q-Y (protein)
chain 1: B1 chain 1
chain 2: B1 chain 2 with A95Y
B11: B8.2.4 TCR mutant β97V-T (protein)
chain 1: B1 chain 1
chain 2: B1 chain 2 with A95Q, V97T
B12: B8.2.4 TCR mutant β98P-M (protein)
chain 1: B1 chain 1
chain 2: B1 chain 2 with A95Q, P98M
B13: B8.2.4 TCR mutant β95Q-T (protein)
chain 1: B1 chain 1
chain 2: B1 chain 2 with A95T
B14: B8.2.4 TCR mutant β98P-S (protein)
chain 1: B1 chain 1
chain 2: B1 chain 2 with A95Q, P98S
B15: B8.2.4 TCR mutant β95Q-H (protein)
chain 1: B1 chain 1
chain 2: B1 chain 2 with A95H
B16: B8.2.4 TCR mutant β95Q-M (protein)
chain 1: B1 chain 1
chain 2: B1 chain 2 with A95M
B17: B8.2.4 TCR mutant β97V-I (protein)
chain 1: B1 chain 1
chain 2: B1 chain 2 with A95Q, V97I
B18: B8.2.4 TCR mutant β98P-V (protein)
chain 1: B1 chain 1
chain 2: B1 chain 2 with A95Q, P98V
B19: B8.2.4 TCR mutant β98P-G (protein)
chain 1: B1 chain 1
chain 2: B1 chain 2 with A95Q, P98G
B20: B8.2.4 TCR mutant β95Q-W (protein)
chain 1: B1 chain 1
chain 2: B1 chain 2 with A95W
B21: B8.2.4 TCR mutant β95Q-C (protein)
chain 1: B1 chain 1
chain 2: B1 chain 2 with A95C
B22: B8.2.4 TCR mutant β98P-L (protein)
chain 1: B1 chain 1
chain 2: B1 chain 2 with A95Q, P98L
B23: B8.2.4 TCR mutant β95Q-G (protein)
chain 1: B1 chain 1
chain 2: B1 chain 2 with A95G
B24: B8.2.4 TCR mutant β95Q-D (protein)
chain 1: B1 chain 1
chain 2: B1 chain 2 with A95D
B25: B8.2.4 TCR mutant β98P-R (protein)
chain 1: B1 chain 1
chain 2: B1 chain 2 with A95Q, P98R
B26: B8.2.4 TCR mutant β98P-H (protein)
chain 1: B1 chain 1
chain 2: B1 chain 2 with A95Q, P98H
B27: B8.2.4 TCR mutant β95Q-V (protein)
chain 1: B1 chain 1
chain 2: B1 chain 2 with A95V

Target: T1, KRAS G13D (G13D-RT6) peptide on …
Test: NFAT-luciferase; Jurkat-NFAT-Luc with the TCR and Lovo-DPA0301:DPB0501 cells loaded with G13D-RT6; against wild-type B8.2.4 TCR; full-length, on cells
Details: chains Valpha:Vbeta

Binder	TCR Mut RLU/WT RLU
B1	0.86
B2	0.78
B3	0.6
B4	0.81
B5	1.11
B6	0.74
B7	0.81
B8	0.96
B9	0.8
B10	0.92
B11	0.98
B12	0.83
B13	0.59
B14	0.94
B15	0.68
B16	0.99
B17	0.61
B18	0.63
B19	0.73
B20	0.88
B21	1.14
B22	0.67
B23	1.03
B24	0.6
B25	0.73
B26	0.6
B27	0.76
